Laboratory results reported in patent US9410182B2, “Phosphatase coupled glycosyltransferase assay” (Bio-Techne Corporation, priority 2010, dated 2016).

Substrate: N[C@H]1C(O)O[C@H](CO)[C@@H](O[C@@H]2O[C@H](CO)[C@H](O)[C@H](O)[C@H]2O)[C@@H]1O
Experiment: Sialyltransferase activity of ST6Gal 1 assayed with CD73
Type: biochemical, human
Conditions: other: acceptor varied, CMP-NeuAc fixed at 0.2 mM; pH 7.5
Excerpt: The GDP-Fucose, UDP-Glucose, CMP-NeuAc, CMP, UDP and GDP used in the following experiments were obtained from Sigma-Aldrich (St Louis, Mo.). The recombinant human Fut7, ST6Gal1, CD73, CD39L3, non-specific alkaline phosphatase TNAP, recombinant Clostridium Difficile toxin B (TcdB) containing the glycosyltransferase domain and Malachite Green Phosphate Detection Kit were obtained from R&D Systems (Minneapolis, Minn.). The 3′-Sialyl-N-acetyllactosamine was obtained from V-LABS, Inc (Convington, La.). Unless otherwise specified, each glycosyltransferase reaction was performed in 50 μL of a buffer of 25 mM Tris, 150 mM NaCl, 5 mM MgCl2 and 5 mM MnCl2, at pH 7.5 in a 96-well plate at room temperature for 20 minutes. […] The plate was then read at 620 nm with a multi-well plate reader.
Sialic acid is negatively charged under normal pH conditions, making sialyltransferases more difficult to assay than other glycosyltransferases. […] The results are shown in FIG. 7, and the specific activities against lactosamine and lactose were determined to be 458 and 41 pmol/min/μg respectively, confirming that the enzyme strongly favors lactosamine structure. The apparent Km and Vmax were determined for one substrate while fixing the other by fitting the data to KaleidaGraph 4 program.

B1: ST6Gal 1 (Homo sapiens) (protein)
chain: MIHTNLKKKFSCCVLVFLLFAVICVWKEKKKGSYYDSFKLQTKEFQVLKSLGKLAMGSDSQSVSSSSTQDPHRGRQTLGSLRGLAKAKPEASFQVWNKDSSSKNLIPRLQKIWKNYLSMNKYKVSYKGPGPGIKFSAEALRCHLRDHVNVSMVEVTDFPFNTSEWEGYLPKESIRTKAGPWGRCAVVSSAGSLKSSQLGREIDDHDAVLRFNGAPTANFQQDVGTKTTIRLMNSQLVTTEKRFLKDSLYNEGILIVWDPSVYHSDIPKWYQNPDYNFFNNYKTYRKLHPNQPFYILKPQMPWELWDILQEISPEEIQPNPPSSGMLGIIIMMTLCDQVDIYEFLPSKRKTDVCYYYQKFFDSACTMGAYHPLLYEKNLVKHLNQGTDEDIYLLGKATLPGFRTIHC
notes: purchased R&D Systems
Km: 1.8 ± 0.4 mM
Vmax: 496 ± 38 pmol/min/µg
